The target of the assay is T1, GST-K-Rta (Kaposi's sarcoma-associated herpesvirus …, UniProt F5HCV3 1-691).
T1 construct: also called GST-tagged K-Rta; source: recombinant baculovirus-infected Sf9 cells, purified
T1 sequence: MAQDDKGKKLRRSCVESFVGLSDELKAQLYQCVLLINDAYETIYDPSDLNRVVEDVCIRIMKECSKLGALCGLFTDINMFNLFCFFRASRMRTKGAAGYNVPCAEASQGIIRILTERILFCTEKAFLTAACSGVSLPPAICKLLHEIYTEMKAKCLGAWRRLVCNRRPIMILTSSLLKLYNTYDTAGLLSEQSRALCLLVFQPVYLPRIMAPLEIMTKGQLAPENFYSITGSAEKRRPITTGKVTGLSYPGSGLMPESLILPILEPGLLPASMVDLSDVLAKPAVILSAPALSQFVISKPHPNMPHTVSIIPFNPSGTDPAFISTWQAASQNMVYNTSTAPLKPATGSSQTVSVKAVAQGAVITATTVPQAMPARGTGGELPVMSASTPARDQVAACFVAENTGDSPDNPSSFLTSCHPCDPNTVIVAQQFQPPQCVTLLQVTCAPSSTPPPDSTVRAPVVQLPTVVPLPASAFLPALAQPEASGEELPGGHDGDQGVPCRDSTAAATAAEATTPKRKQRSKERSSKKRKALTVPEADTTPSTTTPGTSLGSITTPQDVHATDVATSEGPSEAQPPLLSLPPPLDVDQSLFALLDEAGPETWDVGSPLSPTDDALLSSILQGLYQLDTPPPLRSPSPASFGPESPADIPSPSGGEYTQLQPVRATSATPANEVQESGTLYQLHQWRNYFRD
In words: pull-down. The note with it: both partners purified.

B1: FLAG-tagged ZIC2 (natural protein, UniProt O95409 1-532, looked up)
chain: MLLDAGPQFPAIGVGSFARHHHHSAAAAAAAAAEMQDRELSLAAAQNGFVDSAAAHMGAFKLNPGAHELSPGQSSAFTSQGPGAYPGSAAAAAAAAALGPHAAHVGSYSGPPFNSTRDFLFRSRGFGDSAPGGGQHGLFGPGAGGLHHAHSDAQGHLLFPGLPEQHGPHGSQNVLNGQMRLGLPGEVFGRSEQYRQVASPRTDPYSAAQLHNQYGPMNMNMGMNMAAAAAHHHHHHHHHPGAFFRYMRQQCIKQELICKWIDPEQLSNPKKSCNKTFSTMHELVTHVSVEHVGGPEQSNHVCFWEECPREGKPFKAKYKLVNHIRVHTGEKPFPCPFPGCGKVFARSENLKIHKRTHTGEKPFQCEFEGCDRRFANSSDRKKHMHVHTSDKPYLCKMCDKSYTHPSSLRKHMKVHESSPQGSESSPAASSGYESSTPPGLVSPSAEPQSSSNLSPAAAAAAAAAAAAAAAVSAVHRGGGSGSGGAGGGSGGGSGSGGGGGGAGGGGGGSSGGGSGTAGGHSGLSSNFNEWYV
notes: ZIC2 (zinc finger protein of the cerebellum 2); cDNA cloned into pFastBac; also called FLAG-ZIC2; source: recombinant baculovirus-infected Sf9 cells, purified
B1: the binding result is given as “binds”.

Source of the values: PMC5640855, “ZIC2 Is Essential for Maintenance of Latency and Is a Target of an Immediate Early Protein during Kaposi's Sarcoma-Associated Herpesvirus Lytic Reactivation” (Journal of Virology, 2017).
